The supplement of paper PMC7125110
± gives the standard error. This sample holds only a part of the variants without activity.

B1: glmS ribozyme (parent)
chain: AUAAAAGCGCCAGAACUACAGAAAUGUAGUUGACGAGGAGGAGGUUUAUCGAAUUUUCGGCGGAUGCCUCCAAA

Tests used:
Conditions in all cases: with glucosamine-6-phosphate
glucosamine-6-phosphate [1] = variants of: B1; test: self-cleavage kobs at 40 uM GlcN6P; higher = faster cleavage; RNA array
Procedure, shortened: (§1)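 Barcoded glmS ribozyme variants on sequenced MiSeq chips were transcribed in situ by E. coli RNA polymerase and tracked through a hybridised Cy3 probe at 37 °C. Glucosamine-6-phosphate (40 μM to 10 mM) in HEPES/KCl/Mg(OAc)2 buffer was flowed in, and tiles were imaged over ~14 h. Signals were normalised to baseline and to non-cleaving reference variants; per-tile medians were fit to one- or two-exponential decays to give kobs. kcat and KM came from weighted Michaelis–Menten fits across concentrations.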

glucosamine-6-phosphate [2] = variants of: B1; test: self-cleavage kobs at 2500 uM GlcN6P; higher = faster cleavage; RNA array
Procedure, shortened: as §1

glucosamine-6-phosphate [3] = variants of: B1; test: self-cleavage kobs at 10000 uM GlcN6P; higher = faster cleavage; RNA array
Procedure, shortened: as §1

glucosamine-6-phosphate [4] = variants of: B1; test: self-cleavage kobs at 160 uM GlcN6P; higher = faster cleavage; RNA array
Procedure, shortened: as §1

glucosamine-6-phosphate [5] = variants of: B1; test: self-cleavage kobs at 640 uM GlcN6P; higher = faster cleavage; RNA array
Procedure, shortened: as §1

## AUAAAAGCGCCAGAACUACAGAAAUGUAGUUGACGAGGAGGAGGUUUAUCGAAUUUUCAGCGGUUGCCUCCAAA
glucosamine-6-phosphate [1]
  self-cleavage kobs at 40 uM GlcN6P: < 1e-05 s⁻¹
glucosamine-6-phosphate [2]
  self-cleavage kobs at 2500 uM GlcN6P: < 1e-05 s⁻¹
glucosamine-6-phosphate [3]
  self-cleavage kobs at 10000 uM GlcN6P: < 1e-05 s⁻¹

## AUAAAAGCGCCAGACCUACAGAAAUGUAGUUGACGAGGAGGAGGUUUGUCGAAUUUUCGGCGGAUGCCGCCAAA
glucosamine-6-phosphate [1]
  self-cleavage kobs at 40 uM GlcN6P: < 1e-05 s⁻¹
glucosamine-6-phosphate [3]
  self-cleavage kobs at 10000 uM GlcN6P: < 1e-05 s⁻¹

## AUAAAAGCACCUCAACUACAGAAAUGUAGUUGACGAGGACGAGGUUUAUCGAAUUUUCGGCGGAUGCCUCCAAA
glucosamine-6-phosphate [1]
  self-cleavage kobs at 40 uM GlcN6P: < 1e-05 s⁻¹
glucosamine-6-phosphate [3]
  self-cleavage kobs at 10000 uM GlcN6P: < 1e-05 s⁻¹

## AUAAAAGCGCCAAAACUACAGAAAUGUAGUUGACGAGGAGGAGGUGUAUCGAAUUUUCUGCGGAUGCCUUCAAA
glucosamine-6-phosphate [1]
  self-cleavage kobs at 40 uM GlcN6P: < 1e-05 s⁻¹
glucosamine-6-phosphate [2]
  self-cleavage kobs at 2500 uM GlcN6P: < 1e-05 s⁻¹

## AUAAAAGCGCCAGAACUACAGAAAUGUAGUUGACGAGGAGUAGCUUUAUCGAAUUUUCGGCGGAUGCCUCCAAA
glucosamine-6-phosphate [1]
  self-cleavage kobs at 40 uM GlcN6P: < 1e-05 s⁻¹
glucosamine-6-phosphate [4]
  self-cleavage kobs at 160 uM GlcN6P: < 1e-05 s⁻¹
glucosamine-6-phosphate [5]
  self-cleavage kobs at 640 uM GlcN6P: < 1e-05 s⁻¹
glucosamine-6-phosphate [2]
  self-cleavage kobs at 2500 uM GlcN6P: < 1e-05 s⁻¹
glucosamine-6-phosphate [3]
  self-cleavage kobs at 10000 uM GlcN6P: < 1e-05 s⁻¹

## AUAAAAUCGCCAGGACUACAGAAAUGUAGUUCACGAGGUGGAGGUUUAUCGAAUUUUCGGCGGAUGCCUCCAAA
glucosamine-6-phosphate [1]
  self-cleavage kobs at 40 uM GlcN6P: < 1e-05 s⁻¹

## AUAAAGGCGCCAGACCUACAGAAAUGUAGUUGACGAGGAGGAGGUUUAUCGAAUUUUCGGCGGAUGCCUACAAA
glucosamine-6-phosphate [1]
  self-cleavage kobs at 40 uM GlcN6P: < 1e-05 s⁻¹

## AUAAACGCGCCAGAACUACAGAAAUGUACUUGACGAGGAGGAGGUUUAUCGAUUUUUCGGCGGAUGCCUCCAAA
glucosamine-6-phosphate [1]
  self-cleavage kobs at 40 uM GlcN6P: < 1e-05 s⁻¹
glucosamine-6-phosphate [4]
  self-cleavage kobs at 160 uM GlcN6P: < 1e-05 s⁻¹

## AUAAAGCCGCCAGAAAUACAGAAAUGUAGUUGACGAGGAGUAGGUUUAUCGAAUUUUCGGCGGAUGCCUCCAAA
glucosamine-6-phosphate [1]
  self-cleavage kobs at 40 uM GlcN6P: < 1e-05 s⁻¹

## AUAAAAGCGCCAGAACUACAGAAAUGUAGUUGACGAGGAAGAGGUUUAUCGAAUUUUGGGCGGAUGCCUUCAAA
glucosamine-6-phosphate [1]
  self-cleavage kobs at 40 uM GlcN6P: < 1e-05 s⁻¹
glucosamine-6-phosphate [3]
  self-cleavage kobs at 10000 uM GlcN6P: < 1e-05 s⁻¹

## AUAAAAGCGCCAGUACUACAGAAAUGUAGUUGACGAGGAGGAAGUUUAUCGAAUUUUCGGGGGAAGCCUCCAAA
glucosamine-6-phosphate [1]
  self-cleavage kobs at 40 uM GlcN6P: < 1e-05 s⁻¹
glucosamine-6-phosphate [3]
  self-cleavage kobs at 10000 uM GlcN6P: < 1e-05 s⁻¹

## AUAAAAGCGCCAGAACUACAGAAAUGUAGUUGACGUGGAAGAGGUUUAUCGAAUUUUCGGCGGAUGCCUCCAAA
glucosamine-6-phosphate [1]
  self-cleavage kobs at 40 uM GlcN6P: < 1e-05 s⁻¹
glucosamine-6-phosphate [3]
  self-cleavage kobs at 10000 uM GlcN6P: < 1e-05 s⁻¹

## AUAAAAGCGCCAGAACUACAGAAAUGUAGUUGACGAGGAGGUGGUUUAGCGAAUUUACGGGGGAUGCCUCCAAA
glucosamine-6-phosphate [1]
  self-cleavage kobs at 40 uM GlcN6P: < 1e-05 s⁻¹
glucosamine-6-phosphate [5]
  self-cleavage kobs at 640 uM GlcN6P: < 1e-05 s⁻¹
glucosamine-6-phosphate [2]
  self-cleavage kobs at 2500 uM GlcN6P: < 1e-05 s⁻¹
glucosamine-6-phosphate [3]
  self-cleavage kobs at 10000 uM GlcN6P: < 1e-05 s⁻¹

## AUAAAAGCGCCAGAACUACAGAAAUGUAGUUGACGAGGAGGAGGUUUAUCGACUUUUCGGCGUAUGGCGCCAAA
glucosamine-6-phosphate [1]
  self-cleavage kobs at 40 uM GlcN6P: < 1e-05 s⁻¹

## AUAAAAGCUCCAGAAUUACAGAAAUGUAGUUGACGAGGAGGAGGUUUAUCGGAUUUUCGGCGGAUGGCUCCAAA
glucosamine-6-phosphate [1]
  self-cleavage kobs at 40 uM GlcN6P: 0.000158 ± 3.7e-05 s⁻¹
glucosamine-6-phosphate [3]
  self-cleavage kobs at 10000 uM GlcN6P: 0.000546 ± 0.00017 s⁻¹

## AUAAAAGCGCCAGCACUACAGAAAUGUAUUUGACGAGGAGGAGGUUUAUGGAAUUUUCGGCGGAUGCCUCCAAA
glucosamine-6-phosphate [1]
  self-cleavage kobs at 40 uM GlcN6P: 0.000119 ± 3.7e-05 s⁻¹

## AUAAAAGCGCCAAAACUACAGAAAUGUAGUUGACGAGGAGGAGCUUUAUCGAAUUUUCGGAGGAUGCCGCCAAA
glucosamine-6-phosphate [1]
  self-cleavage kobs at 40 uM GlcN6P: < 1e-05 s⁻¹

## AUAAAAGCGCCAGAACUACAGAAAUGUAGUUGACGAGGAGGAGGUUAAUCGAAUUUGCGGCGGAUGCCUCCAAA
glucosamine-6-phosphate [1]
  self-cleavage kobs at 40 uM GlcN6P: < 1e-05 s⁻¹
glucosamine-6-phosphate [3]
  self-cleavage kobs at 10000 uM GlcN6P: 4.75e-05 ± 8.7e-06 s⁻¹
